Laboratory results taken from US20200248174.

Experiments:
[1] = biological target: dCas9 (SpCas9 D10A, H840A) with a plurality of binding domains (SH3 domains)
[2] = biological target: dCas9 (SpCas9 D10A, H840A) ligated to SH3 domain via 2xGS linker

B1: human AID deaminase added with SH3 ligand sequence (protein)
chain: MDSLLMNRRKFLYQFKNVRWAKGRRETYLCYVVKRRDSATSFSLDFGYLRNKNGCHVELLFLRYISDWDLDPGRCYRVTWFTSWSPCYDCARHVADFLRGNPYLSLRIFTARLYFCEDRKAEPEGLRRLHRAGVQIAIMTFKDYFYCWNTFVENHERTFKAWEGLHENSVRLSRQLRRILLPLYEVDDLRDAFRTLGLLDPPPALPPKRRR
mutation introduction efficiency at the CAN1 gene in budding yeast [1]: The mutation introduction efficiency was remarkably improved by introducing a plurality of binding domains into dCas9
introduction of mutation into the targeted site of the CAN1 gene in budding yeast [2]: even when dCas9 and deaminase were linked via the binding domain, mutation was efficiently introduced into the targeted site of the CAN1 gene
